Literature values, collected in US20180228866A1, “COMPOSITIONS” (Sigmoid Pharma Limited, priority 2015, published 2018).

Test system: serum TNF-α, IFN-γ, IL-6
Conditions: within 1-4 hours after injection

For “OKT3: anti-CD3 mAb, administered as a systemic immunosuppressive agent during organ transplantation”, the “serum levels of proinflammatory cytokines such as TNF-α, IFN-γ, and IL-6” value is listed as “markedly elevated”.
